Measurements as given in the nanobody polyreactivity screen of Harvey et al. (2022).

Test: yeast display, Sf9 membrane polyspecificity reagent, FACS + sequencing; frameworks hold sequencing errors
In short: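 Polyreactivity labels are assigned by the sorting gate from which each nanobody was recovered. The gates were low and high (top ~1%), set on anti-HA fluorescence for expression and streptavidin fluorescence for reagent binding. Before sorting, galactose-induced (36–48 hours) yeast display cells were stained for 1 hour at 4 °C with 10% biotinylated, detergent-solubilized Sf9 membrane reagent.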

Sequence | polyreactivity (PSR sort gate)
QVQLVESGGGLVQAGGSLRLSCAASGRTFGPYVMGWYRQAPGKERELVAAISFSGGSTYYADSVKGRFTISRDNAKNTVYLQMNSLKPEDTAVYYCAAPATRPYYTGYDYWGQGTQVTVSS | high polyreactivity
QVQLVESGGGLVQAGGSLRLSCAASGRTFGPYVMGWYSQAPGKDRELVAVIRWSGVSTYYADSVKGRFTISRDKAKNTVYLLRNSMTPEDTAVDYCNAVRPYRLASYDYWGQGTQVTVSS | high polyreactivity
QVQLVESGGGLVQAGGSLRLSCAASGRTFGQNAMGWYRQAPGKERELVATITLNGGNTYYADSVKGRFTISRDNAKNTVYLQMNSLKPEDTAVYYCNAVPSWYRYRPPRFDYWGQGTQVTVSS | low polyreactivity
QVQLVESGGGLVQAGGSLRLSCAASGRTFGQYAMGWYRQAPGKEREFVAGITWSGGSTSYADSVKGRFTISRDNAKNTVYLQMNSLKPEDTAVYYCIAVYWKPSLEYGYWGQGTQVTVSS | high polyreactivity
QVQLVESGGGLVQAGGSLRLSCAASGRTFGQYAMGWYRQAPGKERELVAAISTRGGSTYYADSVKGRFTISRDNAKNTVYLQLNSLKPEDTAVYYCAARQGWFAGYEYWGQGTQVTVSS | low polyreactivity
QVQLVESGGGLVQAGGSLRLSCAASGRTFGQYTMGWYRQAPGKERELVAGITRSGSRTYYADSVKGRFTISRDNAKNTVYLQMNSLKPEDTAVYYCAARVYKSQGGLPEYDYWGQGTQVTVSS | high polyreactivity
QVQLVESGGGLVQAGGSLRLSCAASGRTFGQYVMGWYRQAPGKERELVAAIRSGGSTYYADSVKGRFTISRDNAKNTVYLQMNSLKPEDTAVYYCAKETYYGTDNFGQVGGEMDYWGQGTQVTVSS | low polyreactivity
QVQLVESGGGLVQAGGSLRLSCAASGRTFGRNAMGWYRPAPGKERELVATITRRGGSTYYADSVKGRFTISRDNAKNTVYLQMYSLKPEDTAVYYCNAGIWLGSFRQRFYYWGQGTQVTVSS | high polyreactivity
QVQLVESGGGLVQAGGSLRLSCAASGRTFGRNAMGWYRQAPGKERELVAAINSGGSTKYADSVKGRFTISRDNAKNTVYLQMNSLKPEDTAVYYCARRGGFSYYYWGQGTQVTVSS | high polyreactivity
QVQLVESGGGLVQAGGSLRLSCAASGRTFGRNTMGWYRQAPGKERELVAAIDWSGGSTYYADSVKGRFTISRDNAKNTVYLQMNSLKPEDTAVYYCAAASRYPVNYYYWGQGTQVTVSS | high polyreactivity
QVQLVESGGGLVQAGGSLRLSCAASGRTFGRNTMGWYRQAPGKERELVASITRSSGSTYYADSVKGRFTISRDNAKNTVYLQMNSLKPEDTAVSYCNARATSGGDYWGQGTQVTVSS | high polyreactivity
QVQLVESGGGLVQAGGSLRLSCAASGRTFGRYAKGWYRQAPGKERELVAAISWSGGSTYYADSVKGRFTISRDNAKNTVYLQMNSLKPEDTAVYYCAAVTTDGVYAFDYWGQGTQVTVSS | low polyreactivity
QVQLVESGGGLVQAGGSLRLSCAASGRTFGRYAMGWYRQAHGKERELVAAISWSGGSTYYADSVKGRFTISRDNAKNTVYLQMNNLKPEDTAVYYCAAVTTDGVYAFDYWGQGTQVTVSS | low polyreactivity
QVQLVESGGGLVQAGGSLRLSCAASGRTFGRYAMGWYRQAPGKERELVAAITRSGSSTYYADSVKGRFTISRDNAKNTVYLQMNSLKPEDTAVYYCAALYGPFYSTGEYWGQGTQVTVSS | high polyreactivity
QVQLVESGGGLVQAGGSLRLSCAASGRTFGRYAMGWYRQAPGKERELVAAITWSGGSTYYADSVKGRFTISRDYAKNTVYLQMNSLKPEDTAVYYCAAARVYFGDLFVVYYFIQYDYWGQGTQVTVSS | low polyreactivity
QVQLVESGGGLVQAGGSLRLSCAASGRTFGRYAMGWYRQAPGKESELVAAISWTGGRTYYADSVKGRFTISRDNAKNTVYLQMNSLKPEDTAVYYGAALYDRIPAASRGYDSWGQVTQVTVSS | high polyreactivity
QVQLVESGGGLVQAGGSLRLSCAASGRTFGRYTMGLYRQAPGKERELVAAITYSGGSTYYADSVKGRFTISRDNAKNTVYFQMNSLKPVDTAVYYCADEWGYDWYRYGYWGQGTQVTVSS | low polyreactivity
QVQLVESGGGLVQAGGSLRLSCAASGRTFGRYVMGWYIQAPGKERELVAAIRWSGGTTYYADSVKGRFTISRDNAKNTVYLQMNSLKPEDTAVYYCAARWGPYYGGVRYGYWGQGTQVTVSS | high polyreactivity
QVQLVESGGGLVQAGGSLRLSCAASGRTFGSNAMGWYRQAPGKERELVAAISGRTDSTYYADSVKGRFTISRDNAKNTVYLQMNSLKPEDTAVFYCAADSGDVLYYYIRYNYWGQGTQVTVSS | low polyreactivity
QVQLVESGGGLVQAGGSLRLSCAASGRTFGSNAMGWYRQAPGKERELVAAISSSDSTNYADSVKGRFTISRDNAKNTVYLQMNSLKPEDTAVYYCNAGHPVRSPGYDYWGQGTQVTVSS | low polyreactivity
QVQLVESGGGLVQAGGSLRLSCAASGRTFGSNTMGWYRQAPGKERELVAAISGTGTSTYYADSVKGRFTISRDNAKNTVYLQMNSLKPEDTAVYYCAAGWYKYLFQPHDYWGQGTQVTVSS | low polyreactivity
QVQLVESGGGLVQAGGSLRLSCAASGRTFGSYAMGWYRQAPGKERELVAAITWSGGITYFADSVKGRFTISRDNAKNTVYLKMNSLKPEDTAVYYCNVYVSAGEEDEYWGQGTQVTVSS | low polyreactivity

Sequence | polyreactivity (PSR sort gate)
QVQLVESGGGLVQAGGSLRLSCAASGRTFGSYAMGWYRQAPGTERELVAAITWSGTGTYYADSVKGRFTISRDKAKNTVYLQMHSLKPEDTAVYYCNTDRWYAYDWGQGTQVTVSS | high polyreactivity
QVQLVESGGGLVQAGGSLRLSCAASGRTFGTNAMGWYRPAPGKERELVAAISWRGTSTYYADSVKGRFTISRDNAKNTVYLQMNILKPEVTAVYYCAADFSYTSYATRYQGDYWGQGTQVTVSS | low polyreactivity
QVQLVESGGGLVQAGGSLRLSCAASGRTFGTNAMGWYRQAPGKERELVAAISRRGGSTYYADSVKGRFTISRDNAKNTVYLQMNSLKPEDTAVYYCAKTIGLKHEDEYWGQGTQVTVSS | low polyreactivity
QVQLVESGGGLVQAGGSLRLSCAASGRTFGTNAMVWYRQAPGKERELVAAITWRGGSTSYADSVKGRFTISRDNAKNTVYLQMNSLKPEDSAVYYCAVRLRYPGNTFYYWGQGTQVTVSS | high polyreactivity
QVQLVESGGGLVQAGGSLRLSCAASGRTFGTNGMGWYRQAPGKERELVAVITWTGGSTYYADSVKGRFTISRDNAKNTVYLQMNSLKPEDTAVYYCAAKYSHLGYNYWGQGTQVTVSS | high polyreactivity
QVQLVESGGGLVQAGGSLRLSCAASGRTFGTYAMGWYRQAPGKERELVAAISSGGSTYADSVKGRFTISRDNAKNTVYLQRNSLTPEETAVYYCNADFRARNYHYYPRRFKYYYWGQGTQVTVSS | high polyreactivity
QVQLVESGGGLVQAGGSLRLSCAASGRTFGTYAMGWYRQAPGKQRELVAAISSGGSTYADSVKGRFTISRDNAKNTVYLQMNSLKPEDTAVYYCNADYRARNYHYYPRRFKYYYWGQGTQVTVSS | high polyreactivity
QVQLVESGGGLVQAGGSLRLSCAASGRTFGVNTMGWYRQAPGKERELVASISTSGGSTYADSVKGRFTISRDNAKNTVYLQMISLKPEDTAVYYCARTYYWYLRVDYWGQGTQVTVSS | low polyreactivity
QVQLVESGGGLVQAGGSLRLSCAASGRTFGVYAMGWYRQAPGKDSELVEAINNGGSTNYADSVKGRFTISRDNAKNTVYLQINSLKPEDTAVYNCNAVVGYRHWPYYRGEYDYWGQGTQVTVSS | low polyreactivity
QVQLVESGGGLVQAGGSLRLSCAASGRTFGVYAMGWYRQAPGKERELVAAIRWSGGGTYYADSVKGRFTISRDNAKNTVYLQMNSLKPEDTAVYYCNAEIWTEGGYWGQGTQVTVSS | low polyreactivity
QVQLVESGGGLVQAGGSLRLSCAASGRTFGWKARGWYRQAPGKEMELVAAISWSGTNTYDADSVKGRFTISRDNAKNTVYLQMNSLKPEDTAVYYCAARDWTGSWNGYWSWEYNYWGQGTQVTVSS | low polyreactivity
QVQLVESGGGLVQAGGSLRLSCAASGRTFGWSAMGWYRQAPGKERELVAAISSSGGSTYYADSVKGRFTISRDNAKNTVYLQMNSLKPEDTAVYYCAKESYRGGFDYWGQGTQVTVSS | high polyreactivity
QVQLVESGGGLVQAGGSLRLSCAASGRTFGWYDMGWYRQAPGKERELVAAISWSGSSTYYADSVKGRFTISRDNAKNTVYLQMNSLKPEDNAVYYFNDVIRSDLFSYLDGRYDYWGQGTQVTVSS | high polyreactivity
QVQLVESGGGLVQAGGSLRLSCAASGRTFGYNAMGWYREAPGKERELVAAITLGGITHYADSVKGRFTISRDNAKNTVYLQMNSLKPEDTAVYYCAKRGPYYNDDEYYWGQGTQVTVSS | low polyreactivity
QVQLVESGGGLVQAGGSLRLSCAASGRTFGYNAMGWYRQAPGKERELVAAIRTIGDSTYYADSVKGRFTISRDNAKNSVYLQMNSLKPEDTAVYYCAARKLRSRYDYWGQGTQVTVSS | high polyreactivity
QVQLVESGGGLVQAGGSLRLSCAASGRTFGYNAMGWYRQAPGKERQFVAAISWSGGRTYYADSVKGRFTISRDNAKNTVYLQMNSLKPEDTAVYYCAAAAPHLSAKMDYWGQGTQVTVSS | low polyreactivity
QVQLVESGGGLVQAGGSLRLSCAASGRTFGYNAMGWYSQAPGKERELVAAISRSGGRTYYADSVKGRFTISRDNAKNTVYLQMNSLKPEDTAVYYCAAESYHRGYDYWGQGTQVTLSS | high polyreactivity
QVQLVESGGGLVQAGGSLRLSCAASGRTFGYNVMGWYRQAPGKERELVAAISSGGNTYYADSVKGRFTISRDNAKNTVYLQMNSLKPEDTAVYYCNARQYRYLSDRMNYWGQGTQVTVSS | low polyreactivity
QVQLVESGGGLVQAGGSLRLSCAASGRTFGYNVMGWYRQAPGKERELVAVINGRGGSTYYADSVKGRFTISRDNAKNTVYLQMNSLKPEDTAVYYCNVVSGGYFEYDYWGQGTQVTVSS | high polyreactivity
QVQLVESGGGLVQAGGSLRLSCAASGRTFGYYAMGWYRQAPGKERELVAAINWRGDSTYYADSVKGRFTISRDNAKNTVYLQMNSLKPEDTAVYYCAALVRGYDRSIRMDYWGQGTQVTVSS | high polyreactivity
QVQLVESGGGLVQAGGSLRLSCAASGRTFGYYAMGWYRQAPGKERELVAAISSGGGTYYADSVKGRFTISRDNAKNTVYLLMNSLKPEDTAVYYCAATGWVYWGQFDYWGQGTQVTVSS | low polyreactivity
